From the supplement of paper PMC3353916
± gives the standard deviation of the averaged measurements.

Tested on: Sindbis virus TE/5'2J-GFP
Test: percent infected (GFP+ in RFP+ ISG-expressing cells); higher = more infection (less antiviral activity)
Procedure: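 Confirmatory testing of 87 ISGs. Triplicate wells of BHK/HA-Zeo (control) or BHK/NZAP-Zeo (ZAP) cells were transduced with lentiviruses co-expressing a human ISG plus TagRFP, then infected 48 h later with SINV TE/5'2J-GFP (moi 5). The % GFP+ cells among RFP+ cells was measured by flow cytometry at 8 h post infection. Fluc lentivirus served as control. Three independent experiments.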

[1] = experiment: confirmatory screen 1, BHK/HA-Zeo (control)
[2] = experiment: confirmatory screen 1, BHK/NZAP-Zeo (ZAP)
[3] = experiment: confirmatory screen 2, BHK/HA-Zeo (control)
[4] = experiment: confirmatory screen 2, BHK/NZAP-Zeo (ZAP)
[5] = experiment: confirmatory screen 3, BHK/HA-Zeo (control)
[6] = experiment: confirmatory screen 3, BHK/NZAP-Zeo (ZAP)
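Further: Interferon-defective BHK-21 derivatives, ZAP line overexpressing the rat ZAP N-terminal zinc finger domain fused to Zeocin resistance, GFP scored within live singlet TagRFP+ cells.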

MASVIPASNRSMRSDRNTYVGKRFVHVKNPYLDLMDEDILYHLDLGTKTHNLPAMFGDVKFVCVGGSPNRMKAFALFMHKELGFEEAEEDIKDICAGTDRYCMYKTGPVLAISHGMGIPSISIMLHELIKLLHHARCCDVTIIRIGTSGGIGIAPGTVVITDIAVDSFFKPRFEQVILDNIVTRSTELDKELSEELFNCSKEIPNFPTLVGHTMCTYDFYEGQGRLDGALCSFSREKKLDYLKRAFKAGVRNIEMESTVFAAMCGLCGLKAAVVCVTLLDRLDCDQINLPHDVLVEYQQRPQLLISNFIRRRLGLCD [UPP2]
percent infected [1]: 74.9 ± 4.2%
percent infected [2]: 43.1 ± 2.3%
percent infected [3]: 89.79 ± 0.72%
percent infected [4]: 93.4 ± 1.3%
percent infected [5]: 83.4 ± 1.3%
percent infected [6]: 88.3 ± 1.5%

MATERSRSAMDSPVPASMFAPEPSSPGAARAAAAAARLHGGFDSDCSEDGEALNGEPELDLTSKLVLVSPTSEQYDSLLRQMWERMDEGCGETIYVIGQGSDGTEYGLSEADMEASYATVKSMAEQIEADVILLRERQEAGGRVRDYLVRKRVGDNDFLEVRVAVVGNVDAGKSTLLGVLTHGELDNGRGFARQKLFRHKHEIESGRTSSVGNDILGFDSEGNVVNKPDSHGGSLEWTKICEKSTKVITFIDLAGHEKYLKTTVFGMTGHLPDFCMLMVGSNAGIVGMTKEHLGLALALNVPVFVVVTKIDMCPANILQETLKLLQRLLKSPGCRKIPVLVQSKDDVIVTASNFSSERMCPIFQISNVTGENLDLLKMFLNLLSPRTSYREEEPAEFQIDDTYSVPGVGTVVSGTTLRGLIKLNDTLLLGPDPLGNFLSIAVKSIHRKRMPVKEVRGGQTASFALKKIKRSSIRKGMVMVSPRLNPQASWEFEAEILVLHHPTTISPRYQAMVHCGSIRQTATILSMDKDCLRTGDKATVHFRFIKTPEYLHIDQRLVFREGRTKAVGTITKLLQTTNNSPMNSKPQQIKMQSTKKGPLTKRDEGGPSGGPAVGAPPPGDEASSVGAGQPAASSNLQPQPKPSSGGRRRGGQRHKVKSQGACVTPASGC [GTPBP1]
percent infected [1]: 93.61 ± 0.15%
percent infected [2]: 64.4 ± 7.3%
percent infected [3]: 97.42 ± 0.24%
percent infected [4]: 96.28 ± 0.23%
percent infected [5]: 88.74 ± 0.67%
percent infected [6]: 90.6 ± 0.93%

MAVMEMACPGAPGSAVGQQKELPKAKEKTPPLGKKQSSVYKLEAVEKSPVFCGKWEILNDVITKGTAKEGSEAGPAAISIIAQAECENSQEFSPTFSERIFIAGSKQYSQSESLDQIPNNVAHATEGKMARVCWKGKRRSKARKKRKKKSSKSLAHAGVALAKPLPRTPEQESCTIPVQEDESPLGAPYVRNTPQFTKPLKEPGLGQLCFKQLGEGLRPALPRSELHKLISPLQCLNHVWKLHHPQDGGPLPLPTHPFPYSRLPHPFPFHPLQPWKPHPLESFLGKLACVDSQKPLPDPHLSKLACVDSPKPLPGPHLEPSCLSRGAHEKFSVEEYLVHALQGSVSSGQAHSLTSLAKTWAARGSRSREPSPKTEDNEGVLLTEKLKPVDYEYREEVHWATHQLRLGRGSFGEVHRMEDKQTGFQCAVKKVRLEVFRAEELMACAGLTSPRIVPLYGAVREGPWVNIFMELLEGGSLGQLVKEQGCLPEDRALYYLGQALEGLEYLHSRRILHGDVKADNVLLSSDGSHAALCDFGHAVCLQPDGLGKSLLTGDYIPGTETHMAPEVVLGRSCDAKVDVWSSCCMMLHMLNGCHPWTQFFRGPLCLKIASEPPPVREIPPSCAPLTAQAIQEGLRKEPIHRVSAAELGGKVNRALQQVGGLKSPWRGEYKEPRHPPPNQANYHQTLHAQPRELSPRAPGPRPAEETTGRAPKLQPPLPPEPPEPNKSPPLTLSKEESGMWEPLPLSSLEPAPARNPSSPERKATVPEQELQQLEIELFLNSLSQPFSLEEQEQILSCLSIDSLSLSDDSEKNPSKASQSSRDTLSSGVHSWSSQAEARSSSWNMVLARGRPTDTPSYFNGVKVQIQSLNGEHLHIREFHRVKVGDIATGISSQIPAAAFSLVTKDGQPVRYDMEVPDSGIDLQCTLAPDGSFAWSWRVKHGQLENRP [MAP3K14]
percent infected [1]: 96.4 ± 1.2%
percent infected [2]: 76.4 ± 1.8%
percent infected [3]: 97.1 ± 0.15%
percent infected [4]: 92.2 ± 0.5%
percent infected [5]: 86.1 ± 1.7%
percent infected [6]: 80.9 ± 2.1%

MDAPHSKAALDSINELPENILLELFTHVPARQLLLNCRLVCSLWRDLIDLMTLWKRKCLREGFITKDWDQPVADWKIFYFLRSLHRNLLRNPCAEEDMFAWQIDFNGGDRWKVESLPGAHGTDFPDPKVKKYFVTSYEMCLKSQLVDLVAEGYWEELLDTFRPDIVVKDWFAARADCGCTYQLKVQLASADYFVLASFEPPPVTIQQWNNATWTEVSYTFSDYPRGVRYILFQHGGRDTQYWAGWYGPRVTNSSIVVSPKMTRNQASSEAQPGQKHGQEEAAQSPYRAVVQIF [FBXO6]
percent infected [1]: 95.42 ± 0.3%
percent infected [2]: 65.4 ± 1.8%
percent infected [3]: 94.14 ± 0.54%
percent infected [4]: 94.48 ± 0.2%
percent infected [5]: 90.9 ± 1.1%
percent infected [6]: 91.46 ± 0.7%

MDENNGLLLLELNPPNPWDLQPRSPEELAFGEVQITYLTHACMDLKLGDKRMVFDPWLIGPAFARGWWLLHEPPSDWLERLCQADLIYISHLHSDHLSYPTLKKLAGRRPDIPIYVGNTERPVFWNLNQSGVQLTNINVVPFGIWQQVDKNLRFMILMDGVHPEMDTCIIVEYKGHKILNIVDCTRPNGGRLPMKVALMMSDFAGGASGFPMTFSGGKFTEEWKAQFIKTERKKLLNYKARLVKNLQPRIYCPFAGYFVESHPSDKYIKETNTKNDPNELNNLIKKNSDVITWTPRPGATLDLGRMLKDRTDSKGIIEPPEGTKIYKDSWDFEPYLEILNAALGDEIFLHSSWIKEYFTWAGFKDYNLVVRMIETDEDFNPFPGGYDYLVDFLDLSFPKERPQREHPYEEIHSRVDVIRHVVKNGLLWDELYIGFQTRLQRDPDIYHHLFWNHFQIKLPLTPPNWKSFLMCCEQNGPVILQFSTERTNEPNRNKFSVENKA [CMAH]
percent infected [1]: 94.7 ± 1.2%
percent infected [2]: 75.3 ± 1.9%
percent infected [3]: 95.1 ± 0.29%
percent infected [4]: 94.26 ± 0.25%
percent infected [5]: 93.1 ± 0.62%
percent infected [6]: 92.979 ± 0.089%

MDFKIEHTWDGFPVKHEPVFIRLNPGDRGVMMDISAPFFRDPPAPLGEPGKPFNELWDYEVVEAFFLNDITEQYLEVELCPHGQHLVLLLSGRRNVWKQELPLSFRMSRGETKWEGKAYLPWSYFPPNVTKFNSFAIHGSKDKRSYEALYPVPQHELQQGQKPDFHCLEYFKSFNFNTLLGEEWKQPESDLWLIEKCDI [C4orf33]
percent infected [1]: 96.1 ± 1.3%
percent infected [2]: 85.8 ± 1.1%
percent infected [3]: 96.38 ± 0.37%
percent infected [4]: 94.84 ± 0.39%
percent infected [5]: 93.81 ± 0.1%
percent infected [6]: 93.56 ± 0.3%

MDSRVSELFGGCCRPGGGPAVGGTLKARGAGSSSGCGGPKGKKKNGRNRGGKANNPPYLPPEAEDGNIEYKLKLVNPSQYRFEHLVTQMKWRLQEGRGEAVYQIGVEDNGLLVGLAEEEMRASLKTLHRMAEKVGADITVLREREVDYDSDMPRKITEVLVRKVPDNQQFLDLRVAVLGNVDSGKSTLLGVLTQGELDNGRGRARLNLFRHLHEIQSGRTSSISFEILGFNSKGEVVNYSDSRTAEEICESSSKMITFIDLAGHHKYLHTTIFGLTSYCPDCALLLVSANTGIAGTTREHLGLALALKVPFFIVVSKIDLCAKTTVERTVRQLERVLKQPGCHKVPMLVTSEDDAVTAAQQFAQSPNVTPIFTLSSVSGESLDLLKVFLNILPPLTNSKEQEELMQQLTEFQVDEIYTVPEVGTVVGGTLSSGICREGDQLVVGPTDDGCFLELRVCSIQRNRSACRVLRAGQAATLALGDFDRALLRKGMVMVSPEMNPTICSVFEAEIVLLFHATTFRRGFQVTVHVGNVRQTAVVEKIHAKDKLRTGEKAVVRFRFLKHPEYLKVGAKLLFREGVTKGIGHVTDVQAITAGEAQANMGF [GTPBP2]
percent infected [1]: 91.5 ± 3.9%
percent infected [2]: 64.4 ± 1.3%
percent infected [3]: 94.39 ± 0.34%
percent infected [4]: 94.94 ± 0.23%
percent infected [5]: 94 ± 1.1%
percent infected [6]: 93.43 ± 0.41%

MEKGPVRAPAEKPRGARCSNGFPERDPPRPGPSRPAEKPPRPEAKSAQPADGWKGERPRSEEDNELNLPNLAAAYSSILSSLGENPQRQGLLKTPWRAASAMQFFTKGYQETISDVLNDAIFDEDHDEMVIVKDIDMFSMCEHHLVPFVGKVHIGYLPNKQVLGLSKLARIVEIYSRRLQVQERLTKQIAVAITEALRPAGVGVVVEATHMCMVMRGVQKMNSKTVTSTMLGVFREDPKTREEFLTLIRS [GCH1]
percent infected [1]: 95.976 ± 0.021%
percent infected [2]: 74 ± 2%
percent infected [3]: 95.09 ± 0.34%
percent infected [4]: 93.4 ± 1.6%
percent infected [5]: 92.6 ± 0.98%
percent infected [6]: 92.19 ± 0.15%

MEKLLCFLVLTSLSHAFGQTDMSRKAFVFPKESDTSYVSLKAPLTKPLKAFTVCLHFYTELSSTRGYSIFSYATKRQDNEILIFWSKDIGYSFTVGGSEILFEVPEVTVAPVHICTSWESASGIVEFWVDGKPRVRKSLKKGYTVGAEASIILGQEQDSFGGNFEGSQSLVGDIGNVNMWDFVLSPDEINTIYLGGPFSPNVLNWRALKYEVQGEVFTKPQLWP [CRP]
percent infected [1]: 94.7 ± 1.9%
percent infected [2]: 71.6 ± 4%
percent infected [3]: 95.07 ± 0.27%
percent infected [4]: 94.33 ± 0.72%
percent infected [5]: 89.4 ± 1.5%
percent infected [6]: 92.68 ± 0.15%

MELRSYQWEVIMPALEGKNIIIWLPTGAGKTRAAAYVAKRHLETVDGAKVVVLVNRVHLVTQHGEEFRRMLDGRWTVTTLSGDMGPRAGFGHLARCHDLLICTAELLQMALTSPEEEEHVELTVFSLIVVDECHHTHKDTVYNVIMSQYLELKLQRAQPLPQVLGLTASPGTGGASKLDGAINHVLQLCANLDTWCIMSPQNCCPQLQEHSQQPCKQYNLCHRRSQDPFGDLLKKLMDQIHDHLEMPELSRKFGTQMYEQQVVKLSEAAALAGLQEQRVYALHLRRYNDALLIHDTVRAVDALAALQDFYHREHVTKTQILCAERRLLALFDDRKNELAHLATHGPENPKLEMLEKILQRQFSSSNSPRGIIFTRTRQSAHSLLLWLQQQQGLQTVDIRAQLLIGAGNSSQSTHMTQRDQQEVIQKFQDGTLNLLVATSVAEEGLDIPHCNVVVRYGLLTNEISMVQARGRARADQSVYAFVATEGSRELKRELINEALETLMEQAVAAVQKMDQAEYQAKIRDLQQAALTKRAAQAAQRENQRQQFPVEHVQLLCINCMVAVGHGSDLRKVEGTHHVNVNPNFSNYYNVSRDPVVINKVFKDWKPGGVISCRNCGEVWGLQMIYKSVKLPVLKVRSMLLETPQGRIQAKKWSRVPFSVPDFDFLQHCAENLSDLSLD [DHX58]
percent infected [1]: 95 ± 1.5%
percent infected [2]: 75.7 ± 2.1%
percent infected [3]: 95.81 ± 0.69%
percent infected [4]: 95.7 ± 0.2%
percent infected [5]: 94.51 ± 0.49%
percent infected [6]: 94.61 ± 0.18%

MEQHFLGCVKRAWDSAEVAPEPQPPPIVSSEDRGPWPLPLYPVLGEYSLDSCDLGLLSSPCWRLPGVYWQNGLSPGVQSTLEPSTAKPTEFSWPGTQKQQEAPVEEVGQAEEPDRLRLQQLPWSSPLHPWDRQQDTEVCDSGCLLERRHPPALQPWRHLPGFSDCLEWILRVGFAAFSVLWACCSRICGAKQP [C5orf39]
percent infected [1]: 76.7 ± 4.1%
percent infected [2]: 9.13 ± 2.2%
percent infected [3]: 93.67 ± 0.59%
percent infected [4]: 89.88 ± 0.14%
percent infected [5]: 75.4 ± 1.5%
percent infected [6]: 50.1 ± 3%
